{"source": "patent US20110053163A1", "about": "“Biomarker” (BIOVATOR TECHNOLOGIES AB, priority 2007, published 2011)", "molecules": {"B1": {"name": "Gal d 2: native allergen component from Phadia (Ovalbumin, Egg white) (protein, UniProt P01012 2-386, looked up)", "Ovalbumin": "GSIGAASMEFCFDVFKELKVHHANENIFYCPIAIMSALAMVYLGAKDSTRTQINKVVRFDKLPGFGDSIEAQCGTSVNVHSSLRDILNQITKPNDVYSFSLASRLYAEERYPILPEYLQCVKELYRGGLEPINFQTAADQARELINSWVESQTNGIIRNVLQPSSVDSQTAMVLVNAIVFKGLWEKAFKDEDTQAMPFRVTEQESKPVQMMYQIGLFRVASMASEKMKILELPFASGTMSMLVLLPDEVSGLEQLESIINFEKLTEWTSSNVMEERKIKVYLPRMKMEEKYNLTSVLMAMGITDVFSSSANLSGISSAESLKISQAVHAAHAEINEAGREVVGSAEAGVDAASVSEEFRADHPFLFCIKHIATNAVLFFGRCVSP"}, "B2": {"name": "Alt a 1: native allergen component from Phadia (Alternaria) (protein, UniProt P79085 19-157, looked up)", "Major allergen Alt a 1": "APLESRQDTASCPVTTEGDYVWKISEFYGRKPEGTYYNSLGFNIKATNGGTLDFTCSAQADKLEDHKWYSCGENSFMDFSFDSDRSGLLLKQKVSDDITYVATATLPNYCRAGGNGPKDFVCQGVADAYITLVTLPKSS"}, "B3": {"name": "Gal d 3: native allergen component from Phadia (Conalbumin, Egg, white) (protein, UniProt P02789 20-705, looked up)", "Ovotransferrin": "APPKSVIRWCTISSPEEKKCNNLRDLTQQERISLTCVQKATYLDCIKAIANNEADAISLDGGQAFEAGLAPYKLKPIAAEVYEHTEGSTTSYYAVAVVKKGTEFTVNDLQGKTSCHTGLGRSAGWNIPIGTLLHRGAIEWEGIESGSVEQAVAKFFSASCVPGATIEQKLCRQCKGDPKTKCARNAPYSGYSGAFHCLKDGKGDVAFVKHTTVNENAPDQKDEYELLCLDGSRQPVDNYKTCNWARVAAHAVVARDDNKVEDIWSFLSKAQSDFGVDTKSDFHLFGPPGKKDPVLKDLLFKDSAIMLKRVPSLMDSQLYLGFEYYSAIQSMRKDQLTPSPRENRIQWCAVGKDEKSKCDRWSVVSNGDVECTVVDETKDCIIKIMKGEADAVALDGGLVYTAGVCGLVPVMAERYDDESQCSKTDERPASYFAVAVARKDSNVNWNNLKGKKSCHTAVGRTAGWVIPMGLIHNRTGTCNFDEYFSEGCAPGSPPNSRLCQLCQGSGGIPPEKCVASSHEKYFGYTGALRCLVEKGDVAFIQHSTVEENTGGKNKADWAKNLQMDDFELLCTDGRRANVMDYRECNLAEVPTHAVVVRPEKANKIRDLLERQEKRFGVNGSEKSKFMMFESQNKDLLFKDLTKCLFKVREGTTYKEFLGDKFYTVISSLKTCNPSDILQMCSFLEGK"}, "B4": {"name": "Der p 1: allergenic protein tested for IL-10 induction (protein, UniProt P08176 99-320, looked up)", "Peptidase 1": "TNACSINGNAPAEIDLRQMRTVTPIRMQGGCGSCWAFSGVAATESAYLAYRNQSLDLAEQELVDCASQHGCHGDTIPRGIEYIQHNGVVQESYYRYVAREQSCRRPNAQRFGISNYCQIYPPNVNKIREALAQTHSAIAVIIGIKDLDAFRHYDGRTIIQRDNGYQPNYHAVNIVGYSNAQGVDYWIVRNSWDTNWGDNGYGYFAANIDLMMIEEYPYVVIL"}}, "key": {"MonoMac-6 cells": {"tested_on": "MonoMac-6 cells", "assay": "Cytokine Profile Assay (CPA): neopterin production by stimulated MonoMac-6 cells, ELISA", "type": "cell-based, human", "conditions": "with IFN-γ 100 U/ml", "source_text": "(§1) The instructions of the manufacturers were followed. All these tests are enzyme immunoassays (EIA:s). The principle is that microtiter plate wells are labelled with a cytokine specific capture antibody. If cytokine is present in the samples added to the wells it will be captured to the bottom of the well. […] The reaction is thereafter measured as colour developed after addition of a substrate for the enzyme. The values for the test wells are compared with a standard curve obtained by adding a series of known amounts of cytokine. The values obtained for control wells with no substance added are used as background values for cytokine levels.\n(§2) The myelomonocytic cell line MonoMac-6 (obtained from DSMZ, accession number ACC 124, Prof. H. W. L. Ziegler-Heitbrock, Inst. For Immunology, University of Munich, Munich) was cultured in cell culture flasks (Corning). Cells were cultured in RPMI 1640 medium (Gibco BRL), containing 20 mM HEPES and L-glutamine and supplemented with 10% heat-inactivated foetal bovine serum (Gibco BRL), penicillin (100 U/mL; Sigma-Aldrich), streptomycin (100 μg/mL; Sigma-Aldrich), sodium pyruvate (1.0 mM;Gibco BRL), human insulin (9 μg/mL; Gibco BRL) and non-essential amino acids (Gibco BRL) or cultured in Panserin 411 (Pan Biotech) supplemented with penicillin (100 U/mL), streptomycin (100 μg/mL).\nThe cells were split approximately 1:3 the day before stimulation. The stimulation procedure was performed in three steps. The first step was pre-dilution of test substances, to double the final concentration, in cell culture medium. Furthermore, Interferon-γ (IFN-γ) (100 U, PreproTech) was added in the cell culture media for 24 or 48 hours during stimulation of cells with test substances. The number of cells was then determined by trypan blue exclusion and the cells were diluted to twice the final test concentration (2×10^6 cells/mL) if not otherwise indicated and 100 μl of cell suspension was added per well in 96 well tissue culture plates (Corning). Finally, a 100 μl of pre-diluted test substance (triplicate cultures) was added to the tissue culture plates. […] The stimulated cells were cultured at 37° C., 5% CO2, for 24 or 48 hours. The cell suspension was transferred to new cell culture plates and stored at −20° C. until analyzed. Thereafter the cell suspension was analyzed for presence of neopterin and IL-10 by ELISA (IBL-Hamburg) following the manufacturers instructions."}, "MM6-cells": {"tested_on": "MM6-cells", "assay": "CPA: IL-10 levels of stimulated MM6 cells, ELISA", "type": "cell-based, human", "conditions": "25-200 μg/ml; 48 hours; with IFN-γ 100 U/ml", "source_text": "as §1, §2\nThe cells were split approximately 1:3 the day before stimulation. The stimulation procedure was performed in three steps. The first step was pre-dilution of test substances, to double the final concentration, in cell culture medium. […] The number of cells was then determined by trypan blue exclusion and the cells were diluted to twice the final test concentration (2×10^6 cells/mL) if not otherwise indicated and 100 μl of cell suspension was added per well in 96 well tissue culture plates (Corning). […] The cell suspension was transferred to new cell culture plates and stored at −20° C. until analyzed. Thereafter the cell suspension was analyzed for presence of neopterin and IL-10 by ELISA (IBL-Hamburg) following the manufacturers instructions."}, "[1]": {"conditions": "serum free Panserin media, 48 hrs"}}, "data": [{"molecule": "B1", "values": [{"measurement": "neopterin response (in words)", "setting": "MonoMac-6 cells; [1]", "result": "increased in a dose dependent manner"}, {"measurement": "IL-10 levels (in words)", "setting": "MM6-cells", "result": "induced increased IL-10 levels in a dose dependent manner"}]}, {"molecule": "B2", "values": [{"measurement": "neopterin response (in words)", "setting": "MonoMac-6 cells; proteins, RPMI+10% FCS, 24 hrs, over the tested concentrations", "result": "increased in a dose dependent manner"}, {"measurement": "neopterin response (in words)", "setting": "MonoMac-6 cells; serum free Panserin media, 24 hrs", "result": "increased in a dose dependent manner"}, {"measurement": "neopterin response (in words)", "setting": "MonoMac-6 cells; [1]", "result": "increased in a dose dependent manner"}, {"measurement": "IL-10 levels (in words)", "setting": "MM6-cells", "result": "induced increased IL-10 levels in a dose dependent manner"}]}, {"molecule": "B3", "values": [{"measurement": "neopterin response (in words)", "setting": "MonoMac-6 cells; [1]", "result": "increased in a dose dependent manner"}]}, {"molecule": "B4", "values": [{"measurement": "IL-10 levels (in words)", "setting": "MM6-cells", "result": "induced increased IL-10 levels in a dose dependent manner"}]}]}
